Source: patent publication US20020165156A1 (Biogen, published 2002)

Target: T1, soluble flag-hBAFF (amino acids L83-L285) (human, UniProt Q9Y275 83-285)
T1 construct: range 83-285; also called FLAG-tagged human BAFF; not shown: FLAG tag
Experiment: plate assay, 0.5 ug/ml FLAG-hBAFF on pJST535-transfected 293EBNA cells, anti-FLAG M2 and alkaline phosphatase / fast red
Experimental: Full-length human BAFF-R was generated from BJAB polyA+RNA using the SuperscriptII preamplification kit (Life Technologies) to generate the cDNA template and amplified by Pfu1 using primers complementary to the 5′ and 3′ coding sequences of BAFF-R. The PCR product was cloned into CH269, a derivative of pCEP4 (Invitrogen). The resultant clone was termed pJST535. Human embryonic kidney cells containing the EBNA-1 gene (293EBNA) were seeded into 6 well plates coated with fibronectin and transfected by lipofectamine (Life Technologies) with either pJST535 at various dilutions or CH269 as a background control. At 48 hrs post transfection, transfected cells were assayed for their ability to bind soluble flag-hBAFF(amino acids L83-L285) as follows. All incubations were at room temperature. Conditioned media was aspirated from the wells and the cells washed with BHA buffer (20 mM HEPES pH7.0, 0.5mg/ml BSA, 0.1% NaN3) and incubated with 0.5 ug/ml FLAG-hBAFF diluted in PBS containing 1 mM MgCl2, 1 mM CaCl2 and 0.1% NaN3. After an 1 hr. incubation, the BAFF solution was removed and the cells were washed with BHA. The cells were next incubated for 30 min. in a PBS solution containing 1 ug/ml of the anti-FLAG monoclonal antibody, M2 (Sigma). This solution was aspirated and the cells were washed with BHA. […]

T1 sequence (Q9Y275 83-285 limits assumed): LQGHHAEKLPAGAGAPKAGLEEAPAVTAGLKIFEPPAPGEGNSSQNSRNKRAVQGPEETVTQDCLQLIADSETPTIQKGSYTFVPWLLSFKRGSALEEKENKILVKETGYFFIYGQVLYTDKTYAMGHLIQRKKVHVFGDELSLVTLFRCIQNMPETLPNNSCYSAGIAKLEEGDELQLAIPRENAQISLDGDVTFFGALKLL

B1: full-length human BAFF-R (BCMA) expressed on 293EBNA cells transfected with pJST535 (receptor)
chain: MLQMAGQCSQNEYFDSLLHACIPCQLRCSSNTPPLTCQRYCNASVTNSVKGTNAILWTCLGLSLIISLAVFVLMFLLRKISSEPLKDEFKNTGSGLLGMANIDLEKSRTGDEIILPRGLEYTVEECTCEDCIKSKPKVDSDHCFPLPAMEEGATILVTTKTNDYCKSLPAALSATEIEKSISAR
binding result: binds
